Biological target: T1, thrombin (Bos taurus, UniProt P00735)
T1 construct: purchased Sigma-Aldrich
Experiment: LC-MS analysis of peptide cleavage by thrombin
Assay type: biochemical
Conditions: 12 h incubation with 1 U mL^-1 thrombin in Tris buffer pH 7.4
Description: LC-MS analysis of peptide cleavage. Peptide with sequence GGLVPR|GSGGC (SEQ ID NO:1) was incubated with thrombin (1 U/mL) in Tris buffer (20 mM Tris, 150 mM NaCl, 2.5 mM KCl, pH 7.4) for 12 h.

GGLVPRGSGGC [thrombin cleavable peptide, linker peptide cleaved by thrombin between Arg and Gly]
cleavage of the peptide by thrombin (LCMS): efficiently cleaved

Source: US20210023121A1, “THROMBIN-RESPONSIVE HYDROGELS AND DEVICES FOR AUTO-ANTICOAGULANT REGULATION” (North Carolina State University, priority 2017, published 2021)
